Assay results: patent publication US20220403174A1, “METHOD FOR PREPARING COLORANT HAVING TARGET COLOR AND COLORANT” (Fudan University, priority 2021, published 2022)

Assay: stability of the structural color on a baked biscuit at high temperature
Format: physicochemical
Settings: 130-150° C.
Protocol: At block 902, a predetermined solution mixed with the submicron particles prepared from the predetermined material and the cuttlefish juice submicron particles is applied to a target object. The target object, for example, is food such as, but not limited to, various pastries and candies. For example, a mixture solution of the TiO2 submicron particles and cuttlefish juice submicron particles are added dropwise onto a surface of a biscuit.
At block 904, the target object is baked or frozen to evaporate or sublimate the predetermined solution such that the submicron particles prepared from the predetermined material and the cuttlefish juice submicron particles can be self-assembled into the amorphous photonic crystal structure on the target object, where the baking temperature is less than or equal to 250° C.
For example, when baked, the biscuit having drops of the mixture solution added onto the surface is dried with the increasing baking temperature. In the case, the submicron particles prepared from the predetermined material and the cuttlefish juice submicron particles are self-assembled to generate the structural color of the amorphous photonic crystal structure. The structural color is stable in the baked state at a high temperature (130-150° C.), and the legacy phycocyanin will fade at such high temperature. […]

## phycocyanin
  color stability in the baked state: will fade
